These results are taken from patent US20150210767A1 (GlaxoSmithKline, published 2015).

Test [1] concerns the target T1, biotinylated recombinant human soluble TNFR1 (human, UniProt P19438 30-211, biotinylated (EZ-Link Sulfo-NHS-LC-Biotin), sites not stated).
T1 construct: extracellular domain; Captured on a streptavidin BIAcore chip; also called human sTNFR1; sTNFR1
T1 sequence (looked up): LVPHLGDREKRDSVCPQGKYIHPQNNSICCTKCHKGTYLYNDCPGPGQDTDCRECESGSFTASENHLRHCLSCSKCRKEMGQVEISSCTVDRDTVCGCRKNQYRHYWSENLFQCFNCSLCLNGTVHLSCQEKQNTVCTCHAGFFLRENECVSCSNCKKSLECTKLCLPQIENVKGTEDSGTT
The test is described as follows: BIAcore (SPR), biotinylated human sTNFR1 on SA chip, dAb injected. The protocol: (§1) To confirm the increase in accelerated stability four novel dAbs were also characterised according to the more extensive protocol described in example 1. In this protocol, the dAbs are incubated up to 48 h at 40° C., centrifuged and the remaining dAb in solution quantified using OD₂₈₀. […] To verify that the increase in stability is not at the expense of functional anti-TNFR1 activity of the dAb, the binding affinity to TNFR1 of the dAbs was determined by BIAcore, using biotinylated TNFR1 captured on a BIAcore SA chip. […] Therefore, these dAbs combine an increase in accelerated stability without compromising much on the affinity of the dAb for TNFR1.
TABLE 7 Accelerated stability and affinity for human sTNFR1 for novel anti-TNFR1 dAbs. Purified dAb was incubated at 1 mg/ml in PBS at 40° C. for the indicated amounts of time. After that time, the percentage of residual protein in solution was determined by OD280 determination. Affinity for sTNFR1 was determined by BIAcore using coated sTNFR1 and injecting the dAb as described.
On the technique in general: Surface plasmon resonance follows binding to a sensor surface in real time, without labels.

For test [2], the target named is T1, biotinylated recombinant human soluble …. The experiment in a line: BIAcore (SPR), biotinylated TNFR1 on SA chip; reference value of DOM1h-574-156 (150 pM) described previously. The protocol: as §1
Test [3] shares this target. The experiment in a line: BIAcore (SPR), biotinylated human TNFR1 on streptavidin chip, fusion injected, mean of two experiments ± SD. The protocol:
The affinity of the anti-TNFR1/AlbudAb fusions for human TNFR1 was determined by BIAcore. Briefly, the anti-TNFR1 molecules were injected over a streptavidin BIAcore chip on which biotinylated, human TNFR1 had been immobilised. Association and dissociation were determined at different concentrations of injected anti-TNFR1. […] The affinity for human TNFR1 as determined by BIAcore of the anti-TNFR1/AlbudAb fusion is slightly higher to that determined for the single anti-TNFR1 dAb used in each of the combination constructs.
The binding affinities for binding to recombinant human TNFR1 were assessed by BIAcore™ analysis. Analysis was carried out using Streptavidin coated (SA) chips (BIAcore, cat no. BR-1000-32). An SA chip was coated at low density using biotinylated hTNFR1. Examined molecules were injected over this surface at […] concentrations, i.e. 32, 16 (twice), 8, 4, 2, 1 and 0.5 nM, in random order using a flow rate of 50 μl/min. Between individual injections the surface was regenerated back to baseline using 10 mM glycine pH 2.0. Data were corrected for instrument artefacts using double referencing. Experiments were carried out on a BIAcore™ 3000 machine and data were analysed using the BIAevaluation software version 4.1, kₒₙ and koff were simultaneously fitted using 1:1 Langmuir binding model. For fitting purposes, the concentration range 1-32 nM was used for the monomers, while 0.5-16 nM was used for the AlbudAb fusion molecules. The binding data fitted well to the 1:1 model for all tested molecules. All KD values were calculated from kₒₙ and koff rates. BIAcore™ runs were carried out at 25° C.

Test [4] concerns the target T2, human TNFR1 on human umbilical vein endothelial cells (HUVECs) (human, UniProt P19438 30-455).
T2 sequence (looked up): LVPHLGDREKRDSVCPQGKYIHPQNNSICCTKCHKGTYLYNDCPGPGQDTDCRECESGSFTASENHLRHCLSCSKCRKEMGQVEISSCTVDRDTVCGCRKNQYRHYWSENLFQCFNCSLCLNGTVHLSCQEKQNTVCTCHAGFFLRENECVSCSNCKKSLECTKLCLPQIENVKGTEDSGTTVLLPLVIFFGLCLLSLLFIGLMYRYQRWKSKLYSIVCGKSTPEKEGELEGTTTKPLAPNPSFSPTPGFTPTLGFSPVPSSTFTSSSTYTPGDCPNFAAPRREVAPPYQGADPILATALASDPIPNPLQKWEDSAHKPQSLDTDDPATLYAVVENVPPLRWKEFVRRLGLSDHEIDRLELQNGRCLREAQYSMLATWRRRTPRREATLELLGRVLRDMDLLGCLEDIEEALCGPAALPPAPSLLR
The experiment in a line: cell-based or functional assay.

B1: DOM1h-574-188 (VHH)
VHH: EVQLLESGGGLVQPGGSLRLSCAASGFTFDKYSMGWVRQAPGKGLEWVSQISDTADRTYYAHSVKGRFTISRDNSKNTLYLQMNSLRAEDTAVYYCAIYTGRWVPFEYWGQGTLVTVSS
notes: Human VH immunoglobulin single variable domain (dAb), not camelid; also called anti-TNFR1 dAb DOM1h-574-188
B1: the Kd – broadly, a measure of binding affinity in units of concentration – in test [1] worked out at 0.35 nM. In addition, the “fold change of affinity against the parent dAb DOM1h-574-156” value (from here on “fold change of affinity”) in test [2] is no more than 4 fold.

B2: DOM1h-574-214 (VHH)
VHH: EVQLLESGGGLVQPGGSLRLSCAASGFTFSKYSMGWVRQAPGKGLEWVSQISDTADRTYYADSVKGRFTISRDNSKNTLYLQMNSLRAEDTAVYYCAIYTGRWVPFEYWGQGTLVTVSS
notes: Human VH immunoglobulin single variable domain (dAb), not camelid; Monomer cloned in pDOM13 for expression in E. coli; also called anti-TNFR1 dAb DOM1h-574-214
For the molecule B2, the Kd in test [1] worked out at 0.58 nM. Further, the “fold change of affinity” value in test [2] is no more than 4 fold.

B3: DOM1h-574-196 (VHH)
VHH: EVQLLESGGGLVQPGGSLRLSCAASGFTFSKYSMGWVRQAPGKGLEWVSQISDTADRTYYAHSVKGRFTISRDNSKNTLYLQMNSLRAEDTAVYYCAIYTGRWEPFEYWGQGTLVTVSS
notes: Human VH immunoglobulin single variable domain (dAb), not camelid; Monomer cloned in pDOM13 for expression in E. coli; also called anti-TNFR1 dAb DOM1h-574-196
Take B3: the Kd in test [1] worked out at 0.47 nM. Moreover, the “fold change of affinity” value in test [2] is no more than 4 fold.

B4: DMS5544 (bispecific antibody)
chain: EVQLLESGGGLVQPGGSLRLSCAASGFTFDKYSMGWVRQAPGKGLEWVSQISDTADRTYYAHSVKGRFTISRDNSKNTLYLQMNSLRAEDTAVYYCAIYTGRWVPFEYWGQGTLVTVSSASTDIQMTQSPSSLSASVGDRVTITCRASRPIGTTLSWYQQKPGKAPKLLILWNSRLQSGVPSRFSGSGSGTDFTLTISSLQPEDFATYYCAQAGTHPTTFGQGTKVEIKR
notes: Single-chain genetic fusion of the anti-TNFR1 VH dAb DOM1h-574-188, linker AST and the anti-serum albumin Vk dAb DOM7h-11-3; also called DOM1h-574-188 - Ala-Ser-Thr - DOM7h-11-3; anti-TNFR1/AlbudAb fusion
With B4, the equilibrium dissociation constant (Kd) in test [3] turned out to be 0.18 nM. In test [4], the “Mean EC50, inhibition of TNF-alpha-induced VCAM-1 expression in the HUVEC cell assay” value (from here on “Mean EC50, inhibition”) came out at 4.83 nM.

B5: DMS5542 (bispecific antibody)
chain: EVQLLESGGGLVQPGGSLRLSCAASGFTFSKYSMGWVRQAPGKGLEWVSQISDTADRTYYADSVKGRFTISRDNSKNTLYLQMNSLRAEDTAVYYCAIYTGRWVPFEYWGQGTLVTVSSASTDIQMTQSPSSLSASVGDRVTITCRASRPIGTTLSWYQQKPGKAPKLLILWNSRLQSGVPSRFSGSGSGTDFTLTISSLQPEDFATYYCAQAGTHPTTFGQGTKVEIKR
notes: Single-chain genetic fusion of the anti-TNFR1 VH dAb DOM1h-574-214, linker AST and the anti-serum albumin Vk dAb DOM7h-11-3; also called DOM1h-574-214 - Ala-Ser-Thr - DOM7h-11-3; anti-TNFR1/AlbudAb fusion
As for B5, the Kd in test [3] was found to be 0.202 nM. For the same molecule, the “Mean EC50, inhibition” value in test [4] was determined as 6.23 nM.

B6: DMS5535 (bispecific antibody)
chain: EVQLLESGGGLVQPGGSLRLSCAASGFTFSKYSMGWVRQAPGKGLEWVSQISDTADRTYYAHSVKGRFTISRDNSKNTLYLQMNSLRAEDTAVYYCAIYTGRWEPFEYWGQGTLVTVSSASTDIQMTQSPSSLSASVGDRVTITCRASRPIGTTLSWYQQKPGKAPKLLILWNSRLQSGVPSRFSGSGSGTDFTLTISSLQPEDFATYYCAQAGTHPTTFGQGTKVEIKR
notes: Single-chain genetic fusion of the anti-TNFR1 VH dAb DOM1h-574-196, linker AST and the anti-serum albumin Vk dAb DOM7h-11-3; also called DOM1h-574-196 - Ala-Ser-Thr - DOM7h-11-3; anti-TNFR1/AlbudAb fusion
As to B6, the Kd in test [3] turned out to be 0.277 nM. In addition, the “Mean EC50, inhibition” value in test [4] came out at 5.79 nM.
